Results on seven molecules are retold here after US11667697.

In test [1] the target is CPXV ortholog of H5 (cowpox virus). As to the kind of experiment: lysate ELISA. Background: ELISA stands for enzyme-linked immunosorbent assay.
Test [2] deals with MPXV ortholog of H5 (monkeypox virus). As to the kind of experiment: lysate ELISA.
For test [3], the target named is VACV H5 protein (vaccinia virus). As to the kind of experiment: lysate ELISA.
Test [4] addresses CPXV ortholog of B5 (cowpox virus). As to the kind of experiment: lysate ELISA.
In test [5] the target is MPXV ortholog of B5 (monkeypox virus). As to the kind of experiment: lysate ELISA.
Test [6] deals with VARV ortholog of B5 (variola virus). In words: purified antigen ELISA.
The target in test [7] is CPXV ortholog of B5 (cowpox virus). In words: cell-based or functional assay.
Test [8] has as its target CPXV ortholog of A25 (cowpox virus). In words: lysate ELISA.
The target of test [9] is MPXV ortholog of A25 (monkeypox virus). As to the kind of experiment: lysate ELISA.
In test [10] the target is VACV A25 protein (vaccinia virus). In words: lysate ELISA.
Test [11] concerns the target CPXV ortholog of L1 (cowpox virus). As to the kind of experiment: lysate ELISA.
The target of test [12] is MPXV ortholog of L1 (monkeypox virus). In words: lysate ELISA.
Test [13] concerns the target VARV ortholog of L1 (variola virus). As to the kind of experiment: purified antigen ELISA.
The target of test [14] is CPXV ortholog of L1 (cowpox virus). In words: cell-based or functional assay.
The target of test [15] is MPXV ortholog of L1 (monkeypox virus). In words: cell-based or functional assay.
For test [16], the target named is CPXV ortholog of A33 (cowpox virus). In words: lysate ELISA.
Test [17] has as its target MPXV ortholog of A33 (monkeypox virus). As to the kind of experiment: lysate ELISA.
Test [18] has as its target VARV ortholog of A33 (variola virus). In words: purified antigen ELISA.
For test [19], the target named is MPXV ortholog of A33 (monkeypox virus). In words: cell-based or functional assay.
The target of test [20] is VACV A21 protein (vaccinia virus). In words: purified antigen ELISA.

A word on the EC50: it is the concentration that produces a half-maximal response. Low readings indicate an effect from little substance, high ones a need for much substance.

B1: VACV-308 (antibody, V domains shown)
VH: QVQLVQSGAEVKKPGSSVKVSCKGSGDSFRSYAISWVRQAPGQGLEWMGGIIPRFGTTNYAQKFQDRVTITADKSTTTAYMELRSLKCEDTGVYYCARPQSAYDFGPFDHWGQGTLVTVSS
VL: SYELTQPPSLSVAPGKTARITCGGDNIGSKGVHWYQQKPGQAPVVVISYDSDRPSGIPERFSGSNSGDTATLTISRVEAGDEADYYCHVWHTTTDHYVFGTGTKVTVL
For the molecule B1, the EC50 in [1] was determined as 2 ng/mL; in [2] it was 3 ng/mL; in [3], 6 ng/mL.

B2: MPXV-66 (antibody, V domains shown)
VH: QVQLQQWGAGLLKPSETLSLTCAVHGGSFSGYFWSWIRQPPGKGLEWIGEMNHSGSTNYNPSLKSRVTISVDTSKKQFSLKLNSVTAADTAVYYCARTARTVRYFENWGQGTLVTVSS
VL: DIVMTQSPDSLAVSLGERATINCKSSQTVLYNSNNYSYLTWYQQKPGQPPRVLIYWASTRESGVPDRFSGSGSGTDFTLTISSLQAENVALYYCQQYYSTPWTFGQGTKVDIK
B2: the EC50 in test [4] is above 29 µg/mL; in test [5] it was above 16 µg/mL; in test [6] it was 0.16 µg/mL. The molecule also came in with a PRNT Emax, CPXV EV+C' in test [7] of 86%. In test [7], this molecule came in with a PRNT IC50, CPXV EV+C' of 0.03 µg/mL.

B3: MPXV-9 (antibody, V domains shown)
VH: QVQLVQSGAEVKKPGASVKVSCKASGYNLTTYDIVWVRQAAGQGLEWMGWMNPKSGNTAYAERFQGRVTMTRNTSISTAYMELSSLRSEDTAVYYCARSLDSLRFLEWFHQNYYYFMDVWGKGTTVT
VL: EIVLTQSPATLSLSPGERATLSCRASQTIGGYLAWYQQIPGQAPRLLIYDASNRATGIPARFSGSGSGTDFTLTISSLEPEDFAVYYCQLRSTFGGGTKVDIK
For B3, the EC50 in test [8] is 0.876 µg/mL; in test [9], 0.107 µg/mL; in test [10], 0.022 µg/mL.

B4: MPXV-87 (antibody, V domains shown)
V domain 1: QVQLVQSGAEVKKPGASVKVSCKASGYTFTSHGIIWVRQAPGQGLEWMGWISVYNDNTNSAQKFQDRVTMTTATSTSTAYMELRSLRSDDTAVYYCARSSSGPRYYYYGMDVWGQGTTSP
V domain 2: QSVVTQPPSVSGAPGQRVTISCTGSSSNIGAGYAVHWYYQLPGIAPKLLIFGNNNRPSGVPDRFSGSKSGTSASLAITGLQAEDEADYYCQSYDSSLSGWVFGGGTQVTVL
The molecule B4 returned an EC50 in [11] of 3 ng/mL. In [12], this molecule returned an EC50 of 1 ng/mL. The EC50 in test [13] came to 0.3 µg/mL. In [14], this molecule displayed a PRNT Emax, CPXV MV of 63%; a PRNT Emax, CPXV MV+C' of 82%; a PRNT IC50, CPXV MV of 0.8 µg/mL; a PRNT IC50, CPXV MV+C' of 0.6 µg/mL. In test [15], this molecule yielded a PRNT Emax, MPXV MV of 57%; a PRNT Emax, MPXV MV+C' of 65%; a PRNT IC50, MPXV MV of 50 µg/mL; a PRNT IC50, MPXV MV+C' of 50 µg/mL.

B5: MPXV-51 (antibody, V domains shown)
VH: QLQLQESGPGLVKPSETLSLSCTVSGGSINSRTYYWGWIRQPPGKGPEWIGTVFHNVSTLYTSSLRSRVTISVDTSKNRFSLKLTSVTAADTAVYFCGRLTPRNLFRGTLVRWVDPWGQGILVTVSS
VL: EIVLAQSPGTLSLSPGERATLSCRASHNLNSNYLAWYQQKPGQAPRLLIYGASSRATGIPDRFTGSGSGTDFTLTISRLEPEDFAVYYCQQYAGSLTFGGGTKVDIK
On to B5, for which the EC50 is 0.024 µg/mL in test [16], 0.025 µg/mL in test [17] and 0.04 µg/mL in test [18]. Besides, the PRNT Emax, MPXV EV+C' in test [19] worked out at 77%. The molecule further came in with a PRNT IC50, MPXV EV+C' in test [19] of 0.8 µg/mL.

B6: VACV-318 (antibody, V domains shown)
VH: SYELTQPPSVSVSPGQTARITCSGDELPKRYAYWYQQKSGQAPVLVIYEDTKRPSGIPERFSGSSSGTVATLTISGAQVDDEADYYCYSTDSTSNHKRVFGGGTQVTVL
V domain: QVQLVESGGGVVQPGRSLRLSCTASGFNFSYYGIHWVRQAPGKGLQWVALISYDGSDKYYADSVKGRFTVSRDYSKNTLFLQMNSLRGDDTAVYYCQMVKVPFYFWGQGTMVTLSS
Molecule B6 yielded an EC50 in test [20] of 1.3 µg/mL.

B7: VACV-309 (antibody, V domains shown)
VH: EVQLLESGGGLVQPGESLKLSCAASGFTFSSYAMNWVRQAPGKGLEWVSGISGSGGSTYYADSVKGRFTVSRDNSKNTLYLQMNSLRAEDTAVYYCAKDNNYYYYGMDVWGQGTTVTVSS
VL: AIQMTQSPSSLSASVGDRVTITCRASQGIRNDLGWYQQKPGKAPKLLIYAASSLQSGVPSRFSGSGSGTDFTLTISSLQPEDFATYYCLQDYNYPRMFGQGTKVDIK
In the case of B7, the EC50 in test [8] is 0.005 µg/mL; in test [9] it was 0.001 µg/mL; in test [10], 0.005 µg/mL.
